B1: C-rich (GC-rich) 12-mer dsRNA, Zfr-RBNS1 (dsRNA)
RNA 1: AAUGACACCCAA
RNA 2: UUGGGUGUCAUU
B2: U-rich (AU-rich) 12-mer dsRNA, Zfr-RBNS3 (dsRNA)
RNA 1: AAUGUUGUAAAA
RNA 2: UUUUACAACAUU
B3: C-rich 24-mer RNA : G-rich DNA hybrid, Zfr-RBNS1 (DNA:RNA)
RNA: AAUGACACCCAAAAUGACACCCAA
DNA: TTGGGTGTCATGGGTGTCAT
B4: U-rich (AU-rich) 24-mer dsRNA, Zfr-RBNS3 (dsRNA)
RNA 1: AAUGUUGUAAAAAAUGUUGUAAAA
RNA 2: UUUUACAACAUUUUUUACAACAUU
B5: C-rich (GC-rich) 24-mer dsRNA, Zfr-RBNS1 (dsRNA)
RNA 1: AAUGACACCCAAAAUGACACCCAA
RNA 2: UUGGGUGUCAUUUUGGGUGUCAUU
B6: U-rich 24-mer RNA : A-rich DNA hybrid, Zfr-RBNS3 (DNA:RNA)
RNA: AAUGUUGUAAAAAAUGUUGUAAAA
DNA: TTTTACAACATTTTTACAACATT

How the values were obtained:
ZFRlong;ILF2 (29-390) [1] = target: T1, ZFRlong;ILF2 (29-390) (human;human?, UniProt Q96KR1;Q12905 317-1074;29-390, |); test: EMSA; 4 mM Mg2+; EMSA: 20 mM HEPES pH 7.5, 150 mM K acetate, 4 mM Mg acetate, 1 mM DTT, 0.5 uM nucleic acid, 1 h on ice; 8% native PAGE in 0.5x TBE at 4 C; conditions: protein: recombinant;recombinant, tags: N-terminal His6;N-terminal His6, copies: 1;1, blunt
ZFRlong;ILF2 (29-390) [2] = target: T1, ZFRlong;ILF2 (29-390); test: EMSA; 4 mM Mg2+; affinity similar to 24-mer dsRNA; EMSA: 20 mM HEPES pH 7.5, 150 mM K acetate, 4 mM Mg acetate, 1 mM DTT, 0.5 uM nucleic acid, 1 h on ice; 8% native PAGE in 0.5x TBE at 4 C; conditions: protein: recombinant;recombinant, tags: N-terminal His6;N-terminal His6, copies: 1;1, label: Cy5 on RNA strand (5' per Methods), RNA:DNA duplex
[3] = label: DY681 on strand 1 (5' per Methods)
[4] = label: Cy5 on strand 1 (5' per Methods)

T1 sequence (Q96KR1 317-1074, chain 1 of 2): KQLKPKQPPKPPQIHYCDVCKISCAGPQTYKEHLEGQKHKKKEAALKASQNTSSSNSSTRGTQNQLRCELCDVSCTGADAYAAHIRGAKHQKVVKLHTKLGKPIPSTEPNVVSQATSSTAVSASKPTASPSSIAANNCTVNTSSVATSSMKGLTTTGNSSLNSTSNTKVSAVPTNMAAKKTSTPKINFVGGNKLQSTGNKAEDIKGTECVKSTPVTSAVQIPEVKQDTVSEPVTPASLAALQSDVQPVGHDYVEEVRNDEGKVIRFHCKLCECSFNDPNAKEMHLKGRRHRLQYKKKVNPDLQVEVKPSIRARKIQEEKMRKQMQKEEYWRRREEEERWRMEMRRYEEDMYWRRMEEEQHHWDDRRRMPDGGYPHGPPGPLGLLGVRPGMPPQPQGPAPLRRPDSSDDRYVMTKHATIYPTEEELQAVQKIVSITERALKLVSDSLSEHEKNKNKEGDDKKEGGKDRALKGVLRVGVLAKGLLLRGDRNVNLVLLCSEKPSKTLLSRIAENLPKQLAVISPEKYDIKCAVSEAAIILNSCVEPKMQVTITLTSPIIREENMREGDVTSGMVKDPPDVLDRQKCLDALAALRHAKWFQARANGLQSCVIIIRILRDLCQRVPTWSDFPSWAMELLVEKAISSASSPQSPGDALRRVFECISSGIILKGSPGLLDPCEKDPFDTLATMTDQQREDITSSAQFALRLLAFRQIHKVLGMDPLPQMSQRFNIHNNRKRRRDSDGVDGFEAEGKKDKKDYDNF
T1 sequence (Q12905 29-390, chain 2 of 2): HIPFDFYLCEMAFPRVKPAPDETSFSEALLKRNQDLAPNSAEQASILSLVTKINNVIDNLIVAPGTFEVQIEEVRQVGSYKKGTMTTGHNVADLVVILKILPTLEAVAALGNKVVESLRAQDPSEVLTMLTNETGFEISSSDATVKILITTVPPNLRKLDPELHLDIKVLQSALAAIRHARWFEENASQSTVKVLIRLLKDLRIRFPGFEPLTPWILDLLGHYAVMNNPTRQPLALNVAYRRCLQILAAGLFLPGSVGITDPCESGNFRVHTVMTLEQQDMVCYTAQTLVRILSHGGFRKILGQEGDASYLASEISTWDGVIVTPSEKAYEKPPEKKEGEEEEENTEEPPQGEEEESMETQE

Binder	Kd (ZFRlong;ILF2 (29-390) [1]; [3])	Kd (ZFRlong;ILF2 (29-390) [1]; [4])	other results
B1	~800 nM	–	–
B2	~800 nM	–	–
B3	–	–	binding result (ZFRlong;ILF2 (29-390) [2]; printed DNA 4 nt short): binds
B4	–	~300 nM	–
B5	–	~300 nM	–
B6	–	–	binding result (ZFRlong;ILF2 (29-390) [2]; printed DNA 1 nt short): binds
